Consider eleven molecules from US12428627B2, “Mutant p-hydroxyphenylpyruvate dioxygenase, and coding nucleic acid and use thereof” (Qingdao Kingagroot Chemical Compound Co., Ltd., priority 2018, dated 2025).

Where a chain is given by its changes, count along the chain named. In names and notes the source's numbering stands.

Sequences and labels used below:
B1: H141R/N338D/G342D/K418P: mutant rice HPPD (protein)
chain: MPPTPTPTATTGAVSAAAAAGENAGFRLVGHRRFVRANPRSDRFQALAFHHVELWCADAASAAGRFAFALGAPLAARSDLSTGNSAHASLLLRSASVAFLFTAPYGGDHGVGADAATTASIPSFSPGAARRFAADHGLAVRAVALRVADAADAFRASVAAGARPAFQPADLGGGFGLAEVELYGDVVLRFVSHPDGADAPFLPGFEGVSNPGAVDYGLRRFDHVVGNVPELAPVAAYISGFTGFHEFAEFTAEDVGTAESGLNSVVLANNAETVLLPLNEPVHGTKRRSQIQTYLDHHGGPGVQHIALASDDVLGTLREMRARSAMGGFEFLAPPPPDYYDDVRRRAGDVLSEEQINECQELGVLVDRDDQGVLLQIFTKPVGDRPTFFLEMIQRIGCMEKDESGQEYQKGGCGGFGPGNFSELFKSIEEYEKSLEAKQAPTVQGS
B2: H141R/N338D/G342D: mutant rice HPPD (protein)
chain: B1 chain with P418K
B3: N338D/G342D/R346H: mutant rice HPPD (protein, listed as Oryza sativa)
chain: B1 chain with R141H, R346H, P418K
modifications: The amino acid sequence of Wild-Type rice HPPD protein (OsHPPD _WT)
B4: H141R/N338D/G342D/P386T: mutant rice HPPD (protein)
chain: B1 chain with P386T, P418K
B5: N338D/G342D/R346C: mutant rice HPPD (protein, listed as Oryza sativa)
chain: B1 chain with R141H, R346C, P418K
modifications: The amino acid sequence of Wild-Type rice HPPD protein (OsHPPD _WT)
B6: N338D/G342D: mutant rice HPPD (protein)
chain: B1 chain with R141H, P418K
B7: H141R/N338D/G342D/R346H: mutant rice HPPD (protein)
chain: B1 chain with R346H, P418K
B8: H141R/N338D/G342D/K418P/G419F/N420S: mutant rice HPPD (protein)
chain: B1 chain with G419F, N420S
B9: H141R/N338D/G342D/R346C: mutant rice HPPD (protein)
chain: B1 chain with R346C, P418K
B10: H141R/N338D/N420S: mutant rice HPPD (protein)
chain: B1 chain with D342G, P418K, N420S
B11: G342D/R346C: mutant rice HPPD (protein, listed as Oryza sativa)
chain: B1 chain with R141H, D338N, R346C, P418K
modifications: The amino acid sequence of Wild-Type rice HPPD protein (OsHPPD _WT)

The test system of one data set is OsHPPD proteins. Put plainly: Inhibitory activity (IC50) of the herbicide 101 and huanbifucaotong against OsHPPD proteins. The format is biochemical, Oryza sativa. As to conditions: herbicides 101 and huanbifucaotong. The method, then: (§1) • 1. The activity of a HPPD enzyme was determined by detecting the conversion of 4-hydroxyphenylpyruvate (4-HPP) to homogentisic acid (HGA) catalyzed by the HPPD enzyme and the conversion of HGA to maleylacetoacetate (MAA) catalyzed by homogentisate dioxygenase. […] 6 μl of 4-hydroxyphenylpyruvate (4-HPP) having a concentration that was as 50 times as the final concentration of the substrate were added to an ELSA plate, and then 294 μL of hydroxyethylpiperazine ethanesulfonic acid (HEPES) with a final concentration of 25 mM and pH of 7, 2 mM of Vitamin C, 10 mM FeSO4, 50 nM homogentisate dioxygenase and 5 to 240 nM HPPD enzyme were added thereto at one time. The final concentration of reaction substrate 4-HPP usually ranged from 1 to 100 μM. • 3. The absorbance changes of the reaction wells at 318 nm were continuously monitored by a UV ELISA detector (ReadMax 1900 photoabsorption type full-wavelength microplate reader) (Shanghai). • 4. Determination of Km, Kcat and Kcat/Km of OsHPPDs
• 5. Determination of inhibitory activity (IC50) of the herbicide 101 and huanbifucaotong against OsHPPD proteins
Due to the unique properties of each of 101 and huangbifucaotong, the degree of the increased IC50 value is not completely consistent for the two HPPD herbicides.
Consider B1, for which the “resistance in in vitro enzyme activity experiments” value was “higher resistance”.

As for B2, the “resistance in in vitro enzyme activity experiments” value is reported as “relatively high resistance”.

B3: the “resistance in in vitro enzyme activity experiments” value is “good resistance”.

On to B4, for which the “resistance in in vitro enzyme activity experiments” value is given as “relatively high resistance”.

The test system of another data set is OsHPPD. Briefly: HPPD enzyme activity assay: Km, Kcat and Kcat/Km of OsHPPDs.
Details: not given
The format is biochemical, Oryza sativa. How it is done:
The rice OsHPPD protein and homogentisate 1,2-dioxygenase (HGD) were obtained by heterologously expressed in E. coli wherein the gene was inserted into the pET 15b expression vector and expressed in the BL21 (DE3) expression strain, and purified by the Ni-NTA resin. • (1) The HPPD open reading frame (ORF) of the positive clone was cloned into the pET-15b vector to form a 6His-HPPD expression vector, and transformed into the BL21 (DE3) cell. The expression strain was inoculated in 10 mL of 2×YT culture medium, and cultivated overnight on a shaker at 37° C. and 200 rpm. The 10 mL of the culture was inoculated in 1 L of 2×YT culture medium and cultivated until the OD600 reached 0.6-0.8, cooled to a temperature of 16° C., and subjected to induced-expression with 0.2 mM IPTG (isopropyl thiogalactoside) overnight. The strains were collected by centrifugation at 2800×g. • (2) The collected strains were re-suspended with the buffer A (50 mM Tris pH 8.0, 500 mM NaCl, 20 mM imidazole), to which PMSF (phenylmethanesulfonyl fluoride) at the final concentration of 1 mM and 250 μL of a protease inhibitor cocktail (i.e., a mixture of multiple protease inhibitors), and mixed. The cells were broken by ultrasound in ice-bath (40% total power, work for 3 seconds/6 seconds interval, 2×30 minutes (Ningbo Scientz Biotechnology Co., Ltd., Ningbo, China)), and centrifuged at 12000 rpm at 4° C. for 30 minutes; and the supernatant was filtered with a 0.22 μm filter membrane. • (3) Purification with the Ni-NTA column: the supernatant was in contact with the Ni-NTA resin, then rinsed with a buffer A containing 50 mM imidazole to remove the impurities, and finally, eluted with an elution buffer containing 400 mM imidazole. • (4) The approximate purity of the protein of interest was analyzed by SDS-PAGE. The eluates containing of the protein of interest were combined and concentrated by an ultrafiltration device (10 kDa molecular weight cut-off, Amicon Ultra). The solution was replaced with a solution containing 20 mM Tris-HCl and having a pH of 7.5 for at least 3 times to desalt. The total protein concentration was determined by the BCA method.
as §1
Vmax is the maximum catalytic reaction rate achievable by enzymatic catalysis. The Michaelis constant Km is the concentration of a substrate required when the enzyme catalyzed the reaction to achieve half of the maximum rate (Vmax). The Km value is a constant and independent of the enzyme concentration, and altered as substrate type, reaction temperature, pH, and ionic strength changed. […] is a catalytic constant of an enzyme and referred to the number of substrate molecules that could be catalyzed by an enzyme molecule or enzyme active center per second. KCat/Km represents the catalytic efficiency of enzyme. It could be seen from the data in the table that the catalytic efficiency of most HPPD mutants was enhanced.
Take B2: the “affinity to substrate (Km)” value is recorded as “not reduced”.

On to B4, for which the “affinity to substrate (Km)” value was “not reduced”.

The same data set, now with this note: substrate 4-HPP.
For the molecule B5, the Km was 9.5 µM.

Turning to B1, the Michaelis-Menten constant (Km) amounted to 18.8 µM.

B6: the Michaelis constant (Km) was 2.1 µM.

As for B2, the Km turned out to be 6.3 µM.

As for B3, the Km was determined as 6.3 µM.

Consider B4, for which the Michaelis constant (Km) stood at 9.7 µM.

Turning to B7, the Km is 7.6 µM.

B8: the Km came to 23 µM.

For B9, the Km stood at 7.4 µM.

B10: the Km stood at 5.1 µM.

Turning to B11, the Michaelis-Menten constant (Km) turned out to be 5.9 µM.

The next data set concerns rice HPPD (OsHPPD). Briefly: Color reaction of recombinant E. coli expressing wild-type or mutant rice HPPD, cultured in 96-well plate in medium containing an HPPD-inhibiting herbicide and tyrosine. As to conditions: compound 101. The format is cell-based, Oryza sativa. The text has this: The rice full-length OsHPPD enzyme has 446 amino acids and its amino acid sequence is set forth in SEQ ID NO: 2, wherein the amino acids 1-50 are considered to constitute a signal peptide which is responsible for directing into chloroplast (Siehl et al. Plant Physiol. 2014 November; 166(3): 1162-1176). Therefore, from the amino acid at the 51-position to the amino acid at the […], a saturated random mutation was made for each amino acid. This was achieved by performing a bridge PCR by using a primer containing a coding sequence of an amino acid to be mutated into NNK and another suitable conventional primer. In NNK, N represented A/T/G/C and K represented G/T, and the NNK codon could encode any one of 20 amino acids or terminators. Accordingly, this was a saturated mutation. Please see: Kille S. Acevedo-Rocha C G, Parra L P, Zhang Z G, Opperman D J, Reetz M T, Acevedo J P (2013) Reducing codon redundancy and screening effort of combinatorial protein libraries created by saturation mutagenesis. ACS Synth Biol 2(2):83-92; Directed Evolution Library Creation: methods and protocols 2nd ed. Edited by Elizabeth M. J. Gillam, Janine N. Copp and David F. Ackerley New York, NY United States: Springer, 2014. doi:10.1007/978-1-4939-1053-3. A large number of mutants would be produced. The mutant was cloned into a linearized pET-44a vector and transformed into E. co/i, which was cultivated by using a 96-well plate in a 2×YT culture solution containing an HPPD-inhibiting herbicide (such as 1-2 μM tembotrione) and a substrate tyrosine (1 g/L) in a shaker at 28° C. and 150 rpm for 24 hours for expression, and then the mutants were rapidly screened out according to their color browning. By using the method, 10 single amino acid mutants, A103S, H141R, H141 K, H141T, A165V, V191I, R220K, G342D, D370N and K410I, were screened out. The color reaction of these resistant mutants in the presence of tembotrione and the metabolic product of benzuofucaotong relative to that of the wild type was as shown in FIG. 1.
Similarly, the color reaction of these mutants in the presence of the other three HPPD-inhibiting herbicides huanbifucaotong, topramezone and mesotrione were determined, see FIGS. 2 and 3. The resistance/tolerance of each of the mutants to the five herbicides was roughly estimated on the basis of color changes thereof and the results were shown in Table 1. The more the plus sign “+”, the deeper the color and the higher the resistance/tolerance as compared to the wild type.
HPPD-inhibiting herbicides inhibited HPPD enzymatic activity. When tyrosine was converted to 4-hydroxyphenylpyruvate (HPP) under the action of tyrosine transaminase, the inactivated HPPD was unable to oxidize 4-hydroxyphenylpyruvate into homogentisic acid (HGA). HGA was dark brown. Therefore, if an HPPD mutant was resistant to or tolerant to an herbicide, after expressed in E. coli, the mutant could also oxidize 4-hydroxyphenylpyruvate into homogentisic acid, whereby dark brown appeared. Therefore, E. coli was cultured in a 2×YT culture medium containing a HPPD-inhibiting herbicide and a substrate tyrosine using a 96-well plate to express HPPD, and these mutants were rapidly screened according to their color changes. • (1) Preparation of 2×YT culture medium (1 g/L L-Tyr, 0.1 mM IPTG, 0.01 mM MnCl2 and 100 mg/L ampicillin were added). • (2) 0.1 mL of the above medium was added to each well of a 96-well plate, and the expression clones of OsHPPD wild type or mutant (OsHPPD Mut) from the E. coli plate obtained by the above transformation were subjected to liquid culture in the 96-well plate. HPPD inhibitors having a final concentration of 1 μM-20 μM were added according to different selected agents, for example, the final concentration of tembotrione was 1.7 μM while mesotrione was 10 μM. […]
B5: the “resistance ranking in color reaction” value was “highest resistance”.

With B1, the “resistance ranking in color reaction” value was “strongest resistance”.

As to B3, the “resistance ranking in color reaction” value is on record as “highest resistance”.
